Measured values taken from the supplement of paper PMC7877785.
± gives the uncertainty stated by the source.

Experiment: self-splicing fitness, log relative to wild type (ln ratio); higher = more splicing; Tetrahymena group I intron in knt gene, E. coli kanamycin selection, DiMSum; sequences stand for … in CUCUCU…GGAGGGAAAAGUUAUCAGGCAUGCACCUGGUAGCUAGUCUUUAAACCAAUAGAUUGCAUCGGUUUAAAAGGCAAGACCGUCAAAUUGCGGGAAAGGGGUCAACAGCCGUUCAGUACCAAGUCUCAGGGGAAACUUUGAGAUGGCCUUGCAAAGGGUAUGGUAAUAAGCUGACGGACAUGGUCCUAACCACGCAGCCAAGUCCUAAGUCAACAGAUCUUCUGUUGAUAUGGAUGCAGUUCACAGACUAAAUGUCGGUCGGGGAAGAUGUAUUCUUCUCAUAAGAUAUAGUCGGACCUCUCCUUAAUGGGAGCUAGCGGAUGAAGUGAUGCAACACUGGAGCCGCUGGGAACUAAUUUGUAUGCGAAAGUAUAUUGAUUAGUUUUGGAGUACUCGUGGUCG
Method in brief: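 Library with all eight P1ex-region intron nucleotides randomised, intron inside the knt kanamycin-resistance gene on pET-22b(+), in E. coli BL21(DE3). Cells grew overnight at 37°C or 30°C on LB agar with or without 25 μg/mL kanamycin (plus 100 μg/mL carbenicillin, 50 μM IPTG, 0.2% rhamnose), in six replicate transformations. Pooled colonies were amplicon-sequenced on Illumina HiSeq 2500. DiMSum fitness is the error-weighted combination of wild-type-normalised replicate fold changes, kanamycin versus none.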

| Sequence | self-splicing fitness (ln) (30 °C) | self-splicing fitness (ln) (37 °C) |
| --- | --- | --- |
| CUUUAGCAAUAUUACGAUAG | -0.991 ± 0.11 | -0.782 ± 0.14 |
| GACUAGCAAUAUUACGGCUC | 0.193 ± 0.1 | 0.351 ± 0.12 |
| UGAAAGCAAUAUUACGGUCG | 0.0681 ± 0.051 | 0.137 ± 0.067 |
| CGCCAGCAAUAUUACGAUUU | -2.75 ± 0.19 | -2.62 ± 0.2 |
| ACGAAGCAAUAUUACGUGUG | -2.16 ± 0.054 | -0.817 ± 0.063 |
| GGAUAGCAAUAUUACGGACA | -1.68 ± 0.16 | -0.273 ± 0.16 |
| CGGGAGCAAUAUUACGUGGA | -2.06 ± 0.15 | -3.14 ± 0.23 |
| GUUUAGCAAUAUUACGUGUC | -0.806 ± 0.17 | -1.76 ± 0.17 |
| CGCUAGCAAUAUUACGCAGC | – | -2.8 ± 0.33 |
| CAACAGCAAUAUUACGCCUG | -1.23 ± 0.088 | -0.914 ± 0.11 |
| CGAUAGCAAUAUUACGCCUA | -2.11 ± 0.22 | -1.38 ± 0.18 |
| AAUAAGCAAUAUUACGGAGU | -3.06 ± 0.25 | -2.13 ± 0.32 |
| GCUUAGCAAUAUUACGCUUG | -2.53 ± 0.27 | -1.74 ± 0.36 |
| GCGCAGCAAUAUUACGGCGC | -2.58 ± 0.21 | -1.98 ± 0.24 |
| CCCUAGCAAUAUUACGCGUA | -2.29 ± 0.31 | -0.911 ± 0.2 |
| CAACAGCAAUAUUACGCGAA | -2.16 ± 0.16 | -1.61 ± 0.14 |
| GCACAGCAAUAUUACGGACG | -1.3 ± 0.14 | 0.0137 ± 0.14 |
| GCGUAGCAAUAUUACGGGAU | -1.51 ± 0.14 | -1.38 ± 0.21 |
| ACUCAGCAAUAUUACGGCGA | -1.41 ± 0.1 | -0.93 ± 0.12 |

| Sequence | self-splicing fitness (ln) (30 °C) | self-splicing fitness (ln) (37 °C) |
| --- | --- | --- |
| GGUGAGCAAUAUUACGACAG | -3.05 ± 0.41 | – |
| UUGAAGCAAUAUUACGAAAG | -1.47 ± 0.082 | -0.794 ± 0.1 |
| UCGUAGCAAUAUUACGGCUG | -3.29 ± 0.13 | -1.38 ± 0.14 |
| CGGCAGCAAUAUUACGCACU | -1.45 ± 0.086 | -0.361 ± 0.1 |
| AUCCAGCAAUAUUACGUUUC | -4.16 ± 0.25 | -2.05 ± 0.2 |
| GAAUAGCAAUAUUACGUCAA | -2.1 ± 0.14 | -1.95 ± 0.13 |
| GAGAAGCAAUAUUACGGGAC | -2.56 ± 0.13 | -1.37 ± 0.12 |
| ACGAAGCAAUAUUACGGGCC | -2.74 ± 0.15 | -1.7 ± 0.14 |
| AUCCAGCAAUAUUACGAUGA | -0.862 ± 0.086 | -0.285 ± 0.094 |
| CAGAAGCAAUAUUACGAGGG | -2.99 ± 0.23 | -1.18 ± 0.31 |
| UUGUAGCAAUAUUACGAAGU | -2.54 ± 0.28 | -2.56 ± 0.48 |
| GAGGAGCAAUAUUACGGGGA | -1.86 ± 0.23 | -3.17 ± 0.4 |
| AUACAGCAAUAUUACGCGAC | -1.87 ± 0.14 | -1.97 ± 0.22 |
| CCCGAGCAAUAUUACGUUAG | -3.6 ± 0.17 | -2.8 ± 0.22 |
| GAUGAGCAAUAUUACGUUGG | -3.65 ± 0.3 | -2.2 ± 0.32 |
| CUGCAGCAAUAUUACGCGCC | -3.33 ± 0.33 | -2.17 ± 0.24 |
| GCGUAGCAAUAUUACGUCAG | -1.8 ± 0.4 | -1.23 ± 0.4 |
| AGCAAGCAAUAUUACGUCCU | 0.639 ± 0.099 | 0.541 ± 0.11 |
| UUAGAGCAAUAUUACGCUUA | -0.675 ± 0.099 | -0.447 ± 0.12 |
